Experimental data taken from patent publication US20180245121A1.

Experiments:
[1] = target: FKBP-GDH(155-454AA) (Acinetobacter calcoaceticus) (UniProt P62942); experiment: cell-based or functional assay
[2] = target: FKBP-GDH(155-454AA) (Acinetobacter calcoaceticus) (UniProt P62942); experiment: self-reconstitution of split GDH fragments without ligand; method not described (GDH activity assay implied)

Chain of UniProt P62942 (P62942 2-108, tags or fused parts left off): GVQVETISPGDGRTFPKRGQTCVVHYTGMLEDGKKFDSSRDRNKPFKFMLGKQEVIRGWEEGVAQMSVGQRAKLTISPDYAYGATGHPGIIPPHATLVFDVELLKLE

GDH activity; observed rates on rapamycin titration fitted to a quadratic equation [1]: 11 nM
Kd [2]: 50 to 100 nM
Substance: GDH(1-153AA)-FRB (from UniProt P42345 2021-2113)
